For 3 substances, Km results are on record in patent publication EP2295560A1, “Directed evolution of arginine deiminase for increased activity at physiological pH” (priority 2009, dated 2011).

The data set relates to N=C(N)NCCC[C@H](N)C(=O)O. Put plainly: Determination of kcat and Km (citrulline colorimetric assay, purified enzyme). Conditions: 0.5 M phosphate buffer, 0.2 mM to 10 mM of arginine. The class given is biochemical, Pseudomonas plecoglossicida CGMCC2039. The method, then: The kcat and Km values were determined from initial velocity data measured as a function of substrate concentration. Enzyme reaction was carried out at 37°C in a water bath. After 10 min preincubation at 37"C, the enzyme reaction was initiated by addition of purified enzyme (50 µl, 0.2-0.5 µM) to the substrate solution (200 µl, 0.2 mM to 10 mM of arginine, 0.5 M phosphate buffer, pH 7.4) in deep well plates. The reaction mixture was incubated (37°C) and every two minutes reaction mixture (30 µl) of each well was transferred to acid-ferric solution (30 µl) to stop the enzyme reaction. The color development was subsequently performed in 96-well PCR plate. Ferric-acid solution (90 µl) and DAM-TSC solution (15 µl) were added to each well. The 96-well PCR plate was then incubated (70°C, 30 min) in thermal cycler (Eppendorf Mastercyler gradient) for color development, followed by incubation in ice water to stop color development. Absorbance was measured at 530 nm using a microtiter plate reader (SPECTROstar Omega, BMG LABTECH, Offenburg, Germany). The initial velocity data obtained were fitted to the equation v = Vmax[S]/([S] + Km) (where v is the initial velocity, Vmax the maximum velocity, [S] the substrate concentration, and Km the Michaelis constant) using GraphPad Prism software (GraphPad software, San Diego, CA, USA). The kcat was calculated from the ratio of Vmax, and enzyme concentration.
For kinetic characterization of ADI variants the citrulline production was maintained between 0.2-0.8 mM. […] Figure 4 summarizes the kcat and Km values of wild type PpADI, identified variants M1 […] and M2 (K5T D44E H404R) which were expressed in shaking flasks cultures and purified using a two step procedure (anion exchange follows by gel filtration). Both variants M1 and M2 show an increase in kcat and Km for citrulline production at pH 7.4.

Consider “Pseudomonas plecoglossicida arginine deiminase (PpADI) variant M2 (K5T D44E H404R) (Pseudomonas plecoglossicida; D44E/H404R/K5T)”, for which the Km (usually the concentration of substrate that gives half-maximal velocity) (other: M2, pH 7.4, 37°C) turned out to be 2500 µM.

As to “Pseudomonas plecoglossicida arginine deiminase (PpADI), wild type, SEQ ID No. 1 (Pseudomonas plecoglossicida)”, the Km (other: wild type PpADI, pH 7.4, 37°C) is 700 µM.

In the case of “Pseudomonas plecoglossicida arginine deiminase (PpADI) variant M1 (H404R) (Pseudomonas plecoglossicida; H404R)”, under “other: M1, pH 7.4, 37°C”, the Km amounted to 1200 µM.
